In PMC6156512:

Assays:
[1] = target: HPV 33 L1 aa 10–499 (human papillomavirus type 33) (UniProt P06416); test: not stated; purified L1 under reducing conditions (Fig. S4); about ~8 nm in diameter; monomers to pentamer
[2] = target: HPV 33 L1 aa 10–499 (human papillomavirus type 33) (UniProt P06416); test: cryo-EM structure; purified VLPs at ~3 mg/mL vitrified on Quantifoil holey carbon grids; FEI TF30 at 300 kV; T = 7 particle images boxed manually; pentamers to VLP
[3] = target: HPV 45 L1 aa 1–513 (human papillomavirus type 45); test: not stated; purified L1 under reducing conditions (Fig. S4); about ~8 nm in diameter; monomers to pentamer
[4] = target: HPV 45 L1 aa 1–513 (human papillomavirus type 45); test: cryo-EM structure; purified VLPs at ~3 mg/mL vitrified on Quantifoil holey carbon grids; FEI TF30 at 300 kV; T = 7 particle images boxed manually; pentamers to VLP
[5] = target: HPV 52 L1 aa 15–503 (human papillomavirus type 52); test: not stated; purified L1 under reducing conditions (Fig. S4); about ~8 nm in diameter; monomers to pentamer
[6] = target: HPV 52 L1 aa 15–503 (human papillomavirus type 52); test: cryo-EM structure; purified VLPs at ~3 mg/mL vitrified on Quantifoil holey carbon grids; FEI TF30 at 300 kV; T = 7 particle images boxed manually; pentamers to VLP
[7] = target: HPV 58 L1 aa 10–498 (human papillomavirus type 58); test: not stated; purified L1 under reducing conditions (Fig. S4); about ~8 nm in diameter; monomers to pentamer
[8] = target: HPV 58 L1 aa 10–498 (human papillomavirus type 58); test: cryo-EM structure; purified VLPs at ~3 mg/mL vitrified on Quantifoil holey carbon grids; FEI TF30 at 300 kV; T = 7 particle images boxed manually; pentamers to VLP

“HPV 33 L1 aa 10–499 (from UniProt P06416 10-499) (domain or fragment)” gave a stoichiometry N [1] of 5 and a stoichiometry N (pentamers per particle) [2] of 72.

For HPV 45 L1 aa 1–513 (natural protein), the stoichiometry N [3] was 5 and the stoichiometry N (pentamers per particle) [4] was 72.

For “HPV 52 L1 aa 15–503 (domain or fragment)”, the stoichiometry N [5] was 5 and the stoichiometry N (pentamers per particle) [6] was 72.

In the case of “HPV 58 L1 aa 10–498 (domain or fragment)”, the stoichiometry N [7] is reported as 5 and the stoichiometry N (pentamers per particle) [8] is reported as 72.
